Laboratory results taken from paper PMC6323846, “Comprehensive investigation of the gene expression system regulated by an Aspergillus oryzae transcription factor XlnR using integrated mining of gSELEX-Seq and microarray data”.

T1: MBP-AoXlnR (MBP-XlnR1-183) (Aspergillus oryzae (strain  …, UniProt Q2UD93 1-183))
T1 sequence: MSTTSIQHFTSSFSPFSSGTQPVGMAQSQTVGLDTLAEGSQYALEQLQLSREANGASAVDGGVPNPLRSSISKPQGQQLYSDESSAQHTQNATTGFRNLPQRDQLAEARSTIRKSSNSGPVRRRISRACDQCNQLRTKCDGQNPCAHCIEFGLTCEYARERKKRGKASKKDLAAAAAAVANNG

T2: MBP-AoXlnR (MBP-XlnR1-183) (Aspergillus oryzae (strain not given for the expression construct; RIB40 used for genomic DNA)) (UniProt Q2UD93)
T2 sequence: T1 sequence

B1: egl-242 (dsDNA)
DNA 1: GGAGACTCCTCTCATCTTGCTGGGCTGAAGACTCGGTCAATACCATGATACCTTTTTTTTTTTTTTTTTT
DNA 2: AAAAAAAAAAAAAAAAAAGGTATCATGGTATTGACCGAGTCTTCAGCCCAGCAAGATGAGAGGAGTCTCC
B2: egl-363 (dsDNA)
DNA 1: CAACCCGAGGGTCGATCGACTCCGGCATTAGCTGCCCAGCAGGTATACAGCCTTTTTTTTTTTTTTTTTT
DNA 2: AAAAAAAAAAAAAAAAAAGGCTGTATACCTGCTGGGCAGCTAATGCCGGAGTCGATCGACCCTCGGGTTG
B3: egl-617 (dsDNA)
DNA 1: GCAGCGGCGAAAGGTGCAGGATGGCTGACGCTCAGTTTAATGAGCAGTGGCCTTTTTTTTTTTTTTTTTT
DNA 2: AAAAAAAAAAAAAAAAAAGGCCACTGCTCATTAAACTGAGCGTCAGCCATCCTGCACCTTTCGCCGCTGC
B4: abf-687 (abf-680 in Table S1) (dsDNA)
DNA 1: GCAGAAGCTCTTGCAGATCTGTCGGCTGAAGGTTTGTTTTAGGCCAAATGCCTTTTTTTTTTTTTTTTTT
DNA 2: AAAAAAAAAAAAAAAAAAGGCATTTGGCCTAAAACAAACCTTCAGCCGACAGATCTGCAAGAGCTTCTGC
B5: abf-830 (abf-837 in Table S1) (dsDNA)
DNA 1: TTAAACACATGAGACACACTCGCGGCTGAATGGTTTCGGGTTTTAGCCGGCCTTTTTTTTTTTTTTTTTT
DNA 2: AAAAAAAAAAAAAAAAAAGGCCGGCTAAAACCCGAAACCATTCAGCCGCGAGTGTGTCTCATGTGTTTAA

biological target: T1, MBP-AoXlnR (MBP-XlnR1-183); assay: BLI; BLI (BLItz, streptavidin sensors), Kinetics Buffer 10x (Pall-ForteBio; composition and pH not stated), room temperature, DNA immobilized, 1:1 global fit; details: protein: recombinant; label: 5' biotin on bio-polyA strand (complement of strand 1, S14 extended); blunt

In order of falling Kd:
1. B5  144 nM
2. B4  133 nM
3. B2  68.7 nM
4. B3  48.4 nM
5. B1  40.6 nM

biological target: T2, MBP-AoXlnR (MBP-XlnR1-183) (Aspergillus oryzae (strain not given for the expression construct; RIB40 used for genomic DNA)); assay: BLI; details: BLI (BLItz, streptavidin sensors), Kinetics Buffer 10x (Pall-ForteBio; composition and pH not stated), room temperature, DNA immobilized, 1:1 global fit

In order of rising Kd:
1. CCAGCCAACCTTCAGCTCAGCAATGCATGCCTTTTTCCCTTTTACCCATTTACCCAGGAATAATGGCATCCTCAGGGTTTCAGCATCTGCT (double strand) [xynF1_upstream_1]  311 nM
2. GGAATTCGGGGTATTAGGCTAAACGTGGCTATCATGGTGAAACAGGCTGAAGAACAGTTCCTGGCAGGTCAAATGGGAATCTAGAGC (double strand) [XRE-WT]  656 nM
3. XRE-WT  656 nM
